Assay results reported in patent US8357523B2, “Beta-glucosidase variant enzymes and related polynucleotides” (Codexis, Inc., priority 2009, dated 2013).
Residue numbers refer to the chain shown, from its start.

B1: 1 (protein)
chain: STAIAQEGAAPAAILHPEKWPRPATQRLIDPAVEKRVDALLKQLSVEEKVGQVIQGDIGTITPEDLRKYPLGSILAGGNSGPNGDDRAPPKEWLDLADAFYRVSLEKRPGHTPIPVLFGIDAVHGHGNIGSATIFPHNIALGATHDPELLRRIGEVTAVEMAATGIDWTFAPALSVVRDDRWGRTYEGFSEDPEIVAAYSAAIVESVQGKFGSKDFMAPGRIVASAKHFLADGGTDQGRDQGDARISEDELIRIHNAGYPPAIDAGVLTVMASFSSWQGIKHHGHKQLLTDVLKGQMGFNGFIVGDWNAHDQVPGCTKFNCPTSLIAGLDMYMAADSWKQLYENTLAQVKDGTIPMARLDDAVRRILRVKVLAGLFEKPAPKDRPGLPGLETLGSPEHRAVGREAVRKSLVLLKNDKGTLPLSPKARVLVAGDGADNIGKQSGGWTISWQGTGNRNDEFPGATSILGGIRDAVADAGGSVEFDVAGQYKTKPDVAIVVFGEEPYAEFQGDVETLEYQPDQKQDLALLKKLKDQGIPVVAVFLSGRPMWVNPELNASDAFVAAWLPGTEGGGVADVLFTDKAGKVQHDFAGKLSYSWPRTAAQTTVNRGDADYNPLFAYGYGLTYKDKSKVGTLPEESGVPAEARQNAGIYFRAGALRLPGRFL
B2: 2 (protein)
chain: B1 chain with N128K, S206G
B3: 3 (protein)
chain: B1 chain with S206G, Q287E
B4: 4 (protein)
chain: B1 chain with S206G, D311G, D532G, T599A
B5: 5 (protein)
chain: B1 chain with H145R, S206G
B6: 6 (protein)
chain: B1 chain with A162S, S206G
B7: 7 (protein)
chain: B1 chain with S206G, F211Y
B8: 8 (protein)
chain: B1 chain with A162T, S206G
B9: 9 (protein)
chain: B1 chain with A201G, S206G
B10: 10 (protein)
chain: B1 chain with A198M, S206G
B11: 11 (protein)
chain: B1 chain with V159L, S206G
B12: 12 (protein)
chain: B1 chain with A202N, S206G
B13: 13 (protein)
chain: B1 chain with A198C, S206G
B14: 14 (protein)
chain: B1 chain with D146S, S206G
B15: 15 (protein)
chain: B1 chain with R151P, S206G
B16: 16 (protein)
chain: B1 chain with A198S, S206G
B17: 17 (protein)
chain: B1 chain with S206G, P219M
B18: 18 (protein)
chain: B1 chain with V159A, S206G
B19: 19 (protein)
chain: B1 chain with A198L, S206G
B20: 20 (protein)
chain: B1 chain with A198N, S206G
B21: 21 (protein)
chain: B1 chain with V159Q, S206G
B22: 22 (protein)
chain: B1 chain with V159I, S206G
B23: 23 (protein)
chain: B1 chain with A202P, S206G
B24: 24 (protein)
chain: B1 chain with S206G, P219V
B25: 25 (protein)
chain: B1 chain with R151P, S206G
B26: 26 (protein)
chain: B1 chain with A202F, S206G
B27: 27 (protein)
chain: B1 chain with A202Y, S206G
B28: 28 (protein)
chain: B1 chain with S206G, F211W

Assay: High throughput cellobiose assay: fold improvement in cellobiase activity of CelA variants over a control enzyme (Tables 2A-2D, 3, 5, 6, 7)
Format: biochemical
Settings: 3.3 g/l cellobiose, 50° C. and pH 6.5; compared to native CelA (SEQ ID NO: 4)
Method: β-glucosidase activity was also determined using a cellobiose assay, which used cellobiose as substrate. In a total volume of 100 μL, 25 μL clear media supernatant containing CelA enzyme was added to 10 g/L cellobiose (Fluka Cat. No. 22150, Sigma-Aldrich, Inc., St. Louis, Mo.) in 100 mM sodium phosphate buffer (pH 6-7) or sodium acetate buffer (pH 5-5.5). The reaction was incubated at 45-70° C. for an appropriate time (25 minutes to overnight depending on the enzyme concentration) while shaking. Glucose production was determined using an enzymatic glucose assay (K-GLUC, Megazyme, Ireland). 10 μl of each reaction was added to 190 μl GOPOD reagent (supplied as part of the K-GLUC assay kit). The reaction was incubated at 45° C. for 20 minutes and the absorbance of the solution was measured at 510 nm. The GOPOD reagent contains 50 mM Potassium phosphate buffer pH7.4, 0.011M p-hydroxybenzoic acid, 0.008% w/v sodium azide, glucose oxidase (>12,000 U/L), peroxidase (>650 U/L) and 80 mg/L 4-aminoantipyrine. The glucose oxidase enzyme in the reagent reacts with any glucose present in the sample and produces hydrogen peroxide which then reacts with the 4-aminoantipyrine to produce a quinoneimine dye in quantities proportionate with the amount of glucose present and can be measured spectrophotometrically at 510 nm. Detectable β-glucosidase activity was observed under high throughput screening conditions (i.e., pH 7, 50° C.).
Plasmid libraries containing variant CelA genes were transformed into B. megaterium and plated on Luria-Bertani (LB) agar plates containing 3 μg/mL tetracycline with a DM3 regeneration media overlay (400 mM sodium succinate dibasic, pH 7.3, 0.5% casamino acids, 0.5% yeast extract, 0.4% K2HPO4, 0.2% KH2PO4, 20 mM MgCl2, 0.5% glucose and 0.2% BSA). After incubation for at least 18 hours at 30° C., colonies were picked using a Q-bot® robotic colony picker (Genetix USA, Inc., Beaverton, Oreg.) into shallow, 96-well well microtiter plates containing 180 μL, LB and 10 μg/mL tetracycline. Cells were grown overnight at 37° C. with shaking at 200 rpm and 85% humidity. 10 μL of this culture was then transferred into 96-well microtiter plates (deep well) containing 390 μL A5-glucose-xylose medium and 10 μg/mL tetracycline as described in example 2. The plates were then incubated at 37° C. with shaking at 250 rpm and 85% humidity overnight (˜18-24 hours). The deep plates were centrifuged at 4000 rpm for 15 minutes and the clear media supernatant containing the secreted CelA enzyme was used for the high throughput pNPG or cellobiose assay of Example 5.
The CelA libraries were screened in high throughput using the cellobiose assay of Example 5 (Substrate: cellobiose; pH: 5-7; temperature: 45-72° C.; time: 2-24 hrs) for the identification of improved variants.
In shallow, 96-well microtiter plates 25 μL of media supernatant was added to 75 μL of […] cellobiose in 150 mM sodium acetate buffer pH 5-5.5 or 150 mM sodium phosphate buffer pH6-7. After sealing with aluminum/polypropylene laminate heat seal tape (Velocity 11 (Menlo Park, Calif.), Cat#06643-001), the plates were shaken at 45-65° C. for up to 24 hrs. The plates were centrifuged for 5 minutes at 4000 rpm. In shallow well clear microtiter plates, 10 μL of the reaction mixture was added to 190 μL of GOPOD reagent (as in example 5B) per well. The solutions were incubated at 45° C. for 1 hour and absorbance was measured at 510 nm for the identification of active CelA variants.
Improved CelA variants were identified from the high throughput screening of various CelA variant libraries as described in Example 7, using the cellobiose assay of Example 5 using 3.3 g/l cellobiose at temperatures from 50°-55° C. at a pH in the range of 5.3-6.5. Tables 2A, 2B, 2C, and 2D and Table 3 depict the improvement in activities of CelA variants encompassed by the invention. The assay conditions are indicated in each table. […]

| Molecule | Fold improvement over wildtype CelA |
| --- | --- |
| B1 | + (+ = 1.1 to 2.0 fold improvement over native CelA (SEQ ID NO: 4)) |
| B2 | + (+ = 1.1 to 2.0 fold improvement over native CelA (SEQ ID NO: 4)) |
| B3 | + (+ = 1.1 to 2.0 fold improvement over native CelA (SEQ ID NO: 4)) |
| B4 | + (+ = 1.1 to 2.0 fold improvement over native CelA (SEQ ID NO: 4)) |
| B5 | + (+ = 1.1 to 2.0 fold improvement over native CelA (SEQ ID NO: 4)) |
| B6 | + (+ = 1.1 to 2.0 fold improvement over native CelA (SEQ ID NO: 4)) |
| B7 | ++ (++ = 2.1 to 2.6 fold improvement over native CelA (SEQ ID NO: 4)) |
| B8 | + (+ = 1.1 to 2.0 fold improvement over native CelA (SEQ ID NO: 4)) |
| B9 | + (+ = 1.1 to 2.0 fold improvement over native CelA (SEQ ID NO: 4)) |
| B10 | + (+ = 1.1 to 2.0 fold improvement over native CelA (SEQ ID NO: 4)) |
| B11 | + (+ = 1.1 to 2.0 fold improvement over native CelA (SEQ ID NO: 4)) |
| B12 | + (+ = 1.1 to 2.0 fold improvement over native CelA (SEQ ID NO: 4)) |
| B13 | + (+ = 1.1 to 2.0 fold improvement over native CelA (SEQ ID NO: 4)) |
| B14 | ++ (++ = 2.1 to 2.6 fold improvement over native CelA (SEQ ID NO: 4)) |
| B15 | + (+ = 1.1 to 2.0 fold improvement over native CelA (SEQ ID NO: 4)) |
| B16 | + (+ = 1.1 to 2.0 fold improvement over native CelA (SEQ ID NO: 4)) |
| B17 | + (+ = 1.1 to 2.0 fold improvement over native CelA (SEQ ID NO: 4)) |
| B18 | + (+ = 1.1 to 2.0 fold improvement over native CelA (SEQ ID NO: 4)) |
| B19 | + (+ = 1.1 to 2.0 fold improvement over native CelA (SEQ ID NO: 4)) |
| B20 | + (+ = 1.1 to 2.0 fold improvement over native CelA (SEQ ID NO: 4)) |
| B21 | + (+ = 1.1 to 2.0 fold improvement over native CelA (SEQ ID NO: 4)) |
| B22 | + (+ = 1.1 to 2.0 fold improvement over native CelA (SEQ ID NO: 4)) |
| B23 | + (+ = 1.1 to 2.0 fold improvement over native CelA (SEQ ID NO: 4)) |
| B24 | + (+ = 1.1 to 2.0 fold improvement over native CelA (SEQ ID NO: 4)) |
| B25 | + (+ = 1.1 to 2.0 fold improvement over native CelA (SEQ ID NO: 4)) |
| B26 | + (+ = 1.1 to 2.0 fold improvement over native CelA (SEQ ID NO: 4)) |
| B27 | + (+ = 1.1 to 2.0 fold improvement over native CelA (SEQ ID NO: 4)) |
| B28 | ++ (++ = 2.1 to 2.6 fold improvement over native CelA (SEQ ID NO: 4)) |
